Patent publication US20090239794A1, “HCV F PROTEIN AND USES THEREOF” (priority 2004, published 2009)

Target: T1, HLA-A*0201 (Homo sapiens, UniProt P04439, D140Y/D185E/D98H/E176V/E277Q/G131W/G231S/I119V/I121R/I166T/I218V/L300P/L318F/N151K/N90K/P208A/P217A/Q86G/Q94H/R138H/R169H/T345S)
T1 construct: rescue cell-surface expression of CMH-I molecule HLA-A2 in the TAP peptide transporter-deficient cell line T2; endogenous in cells; host or cells: T2 cells (TAP-deficient)
Assay: T2 peptide binding assay
Format: cell-based
Settings: for dose-response of MHC class I (HLA-A2) expression at the surface of T2 cells: 30, 100, 200 μg/ml; for A2 binding / Peak fluorescence, % of the levels obtained with NS3 1406-1415 / initial screening of the overlapping peptide panel for HLA-A*0201 expression at the cell surface: T2 cells; for A2 binding: dose-dependent increase of HLA-A2 surface expression; for Peak fluorescence, % of the levels obtained with NS3 1406-1415: MHC class I staining with W6/32; for initial screening of the overlapping peptide panel for HLA-A*0201 expression at the cell surface: 200 μg/ml
Description: 37 overlapping peptides (15 amino acid residues with […]) derived from F protein and 5 additional 15-mer peptides corresponding to alternative N-terminal frameshift products of the core protein sequence were synthesized using Fmoc chemistry (SynPep, Dublin, Calif.) based on the sequence of HCV-1a F protein (GenBank accession n° M62321), and were resolubilized in 25% w/v dimethyl sulfoxyde (DMSO) in 1×HBSS. Peptides were diluted to 30, 100, and 200 μg/ml final concentration in DMEM supplemented with 3% w/v FBS, and were incubated with 100,000 serum-depleted (3% FBS for 24 h) T2 cells for 16 h at 37° C. in 5% CO2. T2 cells were then stained (30 min at room temperature) for MHC class I molecules using fluorescein isothiocyanate (FITC)-conjugated W6/32 monoclonal antibody (Sigma, Saint Louis, Mo.) and were analyzed on a FACSCalibur™ flow cytometer (Becton-Dickinson Immunocytometry Systems, La Jolla, Calif.) with live gating based on forward and side scatter.
Interaction of antigenic peptides with class I major histocompatibility complex (MHC) molecules is a prerequisite for their recognition by host cytotoxic T lymphocytes (CTL). The T2 binding assay was therefore performed, in which exogenously-supplied peptides are assessed for their ability to rescue cell-surface expression of CMH-I molecule HLA-A2 in the TAP peptide transporter-deficient cell line T2 [25].
Forty-two overlapping 15-mer peptides corresponding to HCV-1a F protein sequence were tested for interaction with HLA-A*0201 molecules using the T2 peptide binding assay. Specifically, thirty-seven overlapping peptides (15 amino acid residues with 11 residues overlaps) derived from F protein and 5 additional 15-mer peptides corresponding to alternative N-terminal frameshift products of the core protein sequence were synthesized using Fmoc chemistry based on the sequence of HCV-1a ARFP (GenBank accession n° M62321), and peptide binding was assessed as described in Example 1. […] Mean fluorescence intensity following class I MHC staining by the W6/32 monoclonal antibody was used as the readout. The threshold level was set using no peptide controls (hatched lines in FIGS. 4 and 5).

Row | Sequence | dose-response of MHC class I (HLA-A2) expression at the surface of T2 cells | A2 binding | Peak fluorescence, % of the levels obtained with NS3 1406-1415 | initial screening of the overlapping peptide panel for HLA-A*0201 expression at the cell surface
1 | AGAPQTPGV (Hepatitis C virus) [F107-115] | dose-dependent capacity to rescue A2 expression | + |  | 
2 | ALGLAGAPQT (Hepatitis C virus) [F103-112] | unable to rescue HLA-A2 expression |  |  | 
3 | CCRAGALDWVCARRE (Hepatitis C virus) [F37-51] | dose-dependent increase | + | 79.2% | high binders
4 | KLVALGINAV [NS3 1406, reference compound] |  | + |  | 
5 | PVALGLAGAPQTPGV (Hepatitis C virus) [F101-115] | dose-dependent increase | + | 83.2% | high binders
6 | SLVEFTCCRA (Hepatitis C virus) [F31-40] | dose-dependent increase | + |  | 
7 | VRSLVEFTCCRAGAL (Hepatitis C virus) [F29-43, 15-mer of HCV-1a F protein] | dose-dependent increase | + | 87.6% | high binders
